The results in this text go back to US20260275312, “CRISPR NUCLEASE POLYPEPTIDES AND GENE EDITING SYSTEMS COMPRISING SUCH” (ARBOR BIOTECHNOLOGIES, INC., published 2026).

Settings in all cases: tags: N-term SV40 NLS, XTEN linker + C-term nucleoplasmin NLS
Series [1] has as its target T1, Nuclease H (synthetic construct).
T1 chain: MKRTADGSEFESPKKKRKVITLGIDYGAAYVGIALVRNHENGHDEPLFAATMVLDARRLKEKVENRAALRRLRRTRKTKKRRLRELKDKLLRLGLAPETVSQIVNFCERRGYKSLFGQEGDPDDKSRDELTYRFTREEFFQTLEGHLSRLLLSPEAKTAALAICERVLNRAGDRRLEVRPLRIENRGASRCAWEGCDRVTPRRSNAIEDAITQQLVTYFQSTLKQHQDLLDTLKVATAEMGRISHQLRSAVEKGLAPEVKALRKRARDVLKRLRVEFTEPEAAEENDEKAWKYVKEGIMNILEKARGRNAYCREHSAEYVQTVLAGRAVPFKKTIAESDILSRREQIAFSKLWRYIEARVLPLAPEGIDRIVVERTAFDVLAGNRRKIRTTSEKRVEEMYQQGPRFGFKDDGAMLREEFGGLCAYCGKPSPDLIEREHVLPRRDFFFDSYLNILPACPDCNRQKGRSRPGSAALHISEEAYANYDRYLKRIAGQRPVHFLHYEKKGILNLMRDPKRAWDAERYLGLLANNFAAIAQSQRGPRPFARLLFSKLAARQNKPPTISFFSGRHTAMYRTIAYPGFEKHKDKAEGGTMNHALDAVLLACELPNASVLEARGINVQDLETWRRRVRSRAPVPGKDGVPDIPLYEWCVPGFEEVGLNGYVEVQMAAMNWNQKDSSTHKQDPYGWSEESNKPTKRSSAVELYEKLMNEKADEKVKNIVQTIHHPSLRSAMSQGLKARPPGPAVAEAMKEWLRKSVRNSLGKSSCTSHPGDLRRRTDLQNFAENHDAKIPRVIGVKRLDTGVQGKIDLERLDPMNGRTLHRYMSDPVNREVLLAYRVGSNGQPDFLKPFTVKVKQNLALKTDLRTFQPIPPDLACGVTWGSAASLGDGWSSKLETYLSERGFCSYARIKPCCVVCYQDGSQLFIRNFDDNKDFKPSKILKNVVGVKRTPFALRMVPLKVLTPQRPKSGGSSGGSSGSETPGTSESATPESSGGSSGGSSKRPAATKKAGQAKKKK
The experiment in a line: cell_activity; HEK293T; PAM GAC 3'.

For another series, the target named is T2, Nuclease S (synthetic construct).
T2 chain: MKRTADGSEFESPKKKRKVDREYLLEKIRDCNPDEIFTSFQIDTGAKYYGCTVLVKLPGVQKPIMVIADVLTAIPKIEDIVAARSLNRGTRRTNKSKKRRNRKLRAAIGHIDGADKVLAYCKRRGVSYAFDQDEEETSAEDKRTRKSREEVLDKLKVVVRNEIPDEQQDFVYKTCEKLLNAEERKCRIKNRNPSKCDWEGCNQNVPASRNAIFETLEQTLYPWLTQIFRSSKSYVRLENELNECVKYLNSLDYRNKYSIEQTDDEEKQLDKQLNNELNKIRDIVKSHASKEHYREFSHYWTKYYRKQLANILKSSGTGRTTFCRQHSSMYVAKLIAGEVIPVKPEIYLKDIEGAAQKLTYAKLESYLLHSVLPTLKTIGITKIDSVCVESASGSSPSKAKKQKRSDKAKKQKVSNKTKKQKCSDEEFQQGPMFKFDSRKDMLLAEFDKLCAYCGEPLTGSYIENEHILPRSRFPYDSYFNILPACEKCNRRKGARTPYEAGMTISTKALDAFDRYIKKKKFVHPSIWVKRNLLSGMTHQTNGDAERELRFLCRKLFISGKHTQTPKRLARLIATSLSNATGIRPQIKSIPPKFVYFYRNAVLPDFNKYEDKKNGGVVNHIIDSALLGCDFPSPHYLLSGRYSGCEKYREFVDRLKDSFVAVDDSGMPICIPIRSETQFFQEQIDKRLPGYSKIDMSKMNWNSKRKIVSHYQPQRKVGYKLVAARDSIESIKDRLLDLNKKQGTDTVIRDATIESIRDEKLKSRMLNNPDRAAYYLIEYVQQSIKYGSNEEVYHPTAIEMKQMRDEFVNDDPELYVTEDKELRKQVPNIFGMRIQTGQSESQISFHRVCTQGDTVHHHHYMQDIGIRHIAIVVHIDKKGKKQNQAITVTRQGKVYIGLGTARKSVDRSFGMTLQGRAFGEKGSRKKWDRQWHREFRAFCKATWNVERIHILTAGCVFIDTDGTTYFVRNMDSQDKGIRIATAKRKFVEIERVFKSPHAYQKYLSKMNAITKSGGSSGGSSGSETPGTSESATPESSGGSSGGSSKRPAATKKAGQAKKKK
The series can be described thus: cell_activity; HEK293T; PAM AGCC 3'. As to the method:
HEK293T cells were transfected with plasmids expressing the Nuclease S polypeptides and the gRNAs provided herein following the methods provided in Example 1 above. Gene editing efficiencies were determined by NGS following the methods also provided in Example 1. The NGS results were analyzed also following the methods provided in Example 1 above.
Each Nuclease S variant was cloned as described in Example 6. HEK293T cells were further transfected with a plasmid encoding a Nuclease S variant and a plasmid encoding an RNA guide of Table 11, followed by NGS analysis, as described in Example 5. For each target, indel ratios, referring to the percentage of NGS reads comprising indels, were calculated for the reference Nuclease S (SEQ ID NO: 49) and for each Nuclease S variant. The indel ratios shown in Table 13 were calculated as the average of two bioreplicates, each of which contained two technical replicates.

For series [2], the target named is T1, Nuclease H. The series can be described thus: cell_activity; HEK293T; PAM CAC 3'.
The target of the next series is T3, Nuclease H T783R (synthetic construct, T783R).
T3 chain: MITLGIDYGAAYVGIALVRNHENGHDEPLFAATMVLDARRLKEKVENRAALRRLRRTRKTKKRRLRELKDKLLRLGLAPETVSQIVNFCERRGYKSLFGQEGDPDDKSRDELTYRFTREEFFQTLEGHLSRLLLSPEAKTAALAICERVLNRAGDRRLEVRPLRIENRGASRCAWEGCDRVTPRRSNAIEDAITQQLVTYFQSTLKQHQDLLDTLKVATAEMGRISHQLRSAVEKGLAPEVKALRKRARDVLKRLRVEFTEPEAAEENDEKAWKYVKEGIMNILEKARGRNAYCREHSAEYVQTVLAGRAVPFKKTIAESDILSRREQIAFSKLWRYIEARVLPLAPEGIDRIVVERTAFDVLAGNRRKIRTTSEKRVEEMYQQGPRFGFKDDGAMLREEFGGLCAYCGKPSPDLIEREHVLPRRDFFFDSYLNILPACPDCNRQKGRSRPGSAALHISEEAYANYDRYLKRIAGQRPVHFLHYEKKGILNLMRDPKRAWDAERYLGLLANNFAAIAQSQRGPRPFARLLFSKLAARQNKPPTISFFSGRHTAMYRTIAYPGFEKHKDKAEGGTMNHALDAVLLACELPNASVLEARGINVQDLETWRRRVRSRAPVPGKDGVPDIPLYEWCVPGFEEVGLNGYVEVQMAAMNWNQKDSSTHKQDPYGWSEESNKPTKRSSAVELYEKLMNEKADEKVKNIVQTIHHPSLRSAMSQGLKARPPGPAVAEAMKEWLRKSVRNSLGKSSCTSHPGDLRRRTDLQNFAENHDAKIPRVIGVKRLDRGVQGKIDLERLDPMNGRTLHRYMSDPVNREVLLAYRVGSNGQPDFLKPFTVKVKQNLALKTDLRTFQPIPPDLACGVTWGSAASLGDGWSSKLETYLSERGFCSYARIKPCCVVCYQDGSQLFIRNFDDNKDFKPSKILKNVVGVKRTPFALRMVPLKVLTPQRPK
The series can be described thus: cell_activity; HEK293T; PAM CAC. As to the method:
HEK293T cells were transfected with plasmids expressing the Nuclease H polypeptides and the gRNAs provided herein following the methods provided in Example 1 above. Gene editing efficiencies were determined by NGS following the methods also provided in Example 1. The NGS results were analyzed also following the methods provided in Example 1 above.
Indel ratios, referring to the percentage of NGS reads comprising indels, were calculated for the reference and for each variant. The indel ratios used for fold change calculations were the average of two technical replicates. To then calculate fold change in indel ratios, the indel ratio for each variant was divided by the indel ratio for the reference. […] Numbering is relative to the reference nuclease of SEQ ID NO: 64 (i.e., without an NLS).

B1: H VEGFA-T6 RNA guide ; VEGFA-T6 target (H) (ssRNA ; dsDNA)
RNA: GACUCUUCAAAUCCUCCCUUGUUUCAAUCAACCUGAUCUCUCUGCUUGCGCUGCAGGCUUCAUAAGAUCAGUAGGUUGAAAAGAGCAUCCGUCCGACAUGCACUCCGGGAUGGGGCAGUCCCGGCUCUUGCGGUUCCCGAUGCAGUUAUGUGUCCGCGGAACACGGUGUCGGACACGUCGCAAGACAGGAUGUGAGCCCAUUAUCCACAUUAGGAUCAAUGUACGCAUGAGCAGUCCGCAAUGCCGGGGACGCU
DNA 1: GACTCTTCAAATCCTCCCTT
DNA 2: AAGGGAGGATTTGAAGAGTC
Turning to B1, the activity in the series with Nuclease H [1] came out at 0.0378 indel ratio.

B2: S EMX1-T4 RNA guide ; EMX1-T4 target (S) (ssRNA ; dsDNA)
RNA: AUGACUCCAGGCCUCCCCAAGUUGUAUUCGGAUGGGAGUAAAAGGUUGAGUACACCUGGAAACAAAACGACAUAAAGGUGUUCUCCCAUCUGUGUACAAAGAGCAGAUAUAUGAGUUGAUAAGUAAUAUGUUGCACGUAUGGACUUUGACAGUCUGUACCUCUGCGUGAAAGACAUAUUGCGUUAUUCAUAUAUCUGUGAGUCUGUUCUAAAUUUAAAGGUUUAGGGAA
DNA 1: ATGACTCCAGGCCTCCCCAA
DNA 2: TTGGGGAGGCCTGGAGTCAT
For B2, the activity with Nuclease S is 0.0265 indel ratio.

B3: S VEGFA-T4 RNA guide ; VEGFA-T4 target (S) (ssRNA ; dsDNA)
RNA: CUCUACACAAAUCUCUCCAGGUUGUAUUCGGAUGGGAGUAAAAGGUUGAGUACACCUGGAAACAAAACGACAUAAAGGUGUUCUCCCAUCUGUGUACAAAGAGCAGAUAUAUGAGUUGAUAAGUAAUAUGUUGCACGUAUGGACUUUGACAGUCUGUACCUCUGCGUGAAAGACAUAUUGCGUUAUUCAUAUAUCUGUGAGUCUGUUCUAAAUUUAAAGGUUUAGGGAA
DNA 1: CTCTACACAAATCTCTCCAG
DNA 2: CTGGAGAGATTTGTGTAGAG
As to B3, the activity with Nuclease S stood at 0.0333 indel ratio.

B4: H EMX1-T5 RNA guide ; EMX1-T5 target (H) (ssRNA ; dsDNA)
RNA: GAGGCCUGGAGUCAUGGCCCGUUUCAAUCAACCUGAUCUCUCUGCUUGCGCUGCAGGCUUCAUAAGAUCAGUAGGUUGAAAAGAGCAUCCGUCCGACAUGCACUCCGGGAUGGGGCAGUCCCGGCUCUUGCGGUUCCCGAUGCAGUUAUGUGUCCGCGGAACACGGUGUCGGACACGUCGCAAGACAGGAUGUGAGCCCAUUAUCCACAUUAGGAUCAAUGUACGCAUGAGCAGUCCGCAAUGCCGGGGACGCU
DNA 1: GAGGCCTGGAGTCATGGCCC
DNA 2: GGGCCATGACTCCAGGCCTC
Take B4: in the series with Nuclease H [2], the activity worked out at 0.032 indel ratio. The “fold change in indel ratio vs reference” value in the series with Nuclease H T783R came to 4.33 fold indel vs reference.
